This note sets out measurements from patent US20260061042A1, “POLYNUCLEOTIDE COMPOSITIONS AND USES THEREOF” (Pfizer Inc., priority 2024, published 2026).

The test system of the data set is E. coli strain CFT073 expressing the fimbrial adhesin PapG. Nature of the data set: PapG hemagglutination inhibition (HAI) assay on sera of mice immunized with PapG modRNA LNPs. It counts as in vivo. The settings on record: 50 μl IM; for Step Titer GMT (HAI): weeks 0, 4, bleed week 6, GMT of individual titers; for Step Titer Pool (HAI): weeks 0, 4, bleed week 6, serum pool. From the text:
Escherichia coli to the uroepithelium of human kidney. The PapG lectin binds to the globoside (GbO4) glycolipid, which is enriched in urinary tract tissue and consists of the tetrasacharide GalNAcβ1-3Galα1-4Galβ1-4Glc linked to ceramide. Here we present the use of a hemagglutination inhibition assay (HAI) to determine vaccine functional responses to protein subunit PapG or mRNA-expressed PapG antigens. In this assay the agglutination of human red blood cells (hRBCs) expressing GbO4 is caused by live E. coli CFT073 bacteria expressing PapG. The HAI assay measures the ability of PapG-elicited antibodies to prevent hRBC agglutination, exemplifying inhibition of the key bacterial adherence mechanism leading to clinical pyelonephritis. The assay was used to characterize the functional activity of PapG monoclonal antibodies (mAbs) raised against a PapG lectin domain subunit antigen. PapG HAI data from a mouse immunogenicity study are described that evaluated various 5 monovalent PapG modRNA LNPs and a PapG subunit comparator.
In this mouse study immunogenicity of different PapG mRNA constructs were evaluated. […]
iii. PapG Hemagglutination Inhibition Assay (HAI) 1. Preparation of Single Use Frozen E. coli CFT073 Banks Frozen bacterial stocks for use in the PapG HAI are stored at a concentration of ˜15 OD/mL. For stock preparation, take 6 ×100 μL of frozen parental strain CFT073 glycerol stock to seed six overnight cultures with ˜85 mL Luria's Broth (LB) each in 250 mL vented flasks. Flasks are shaken at 200 rpm and 37° C. overnight. On the same day, prepare 100 mL LB media with 30% glycerol and 0.4% sucrose by mixing […] 80% Glycerol with 0.8 mL 50% Sucrose in 64 mL LB and pre-chill at 4° C. After ˜16 h growth, determine the OD600 nm of each flask with the SpectraMax M5e plate reader by adding 100 μL culture to 900 μL LB (1:10 dilution). After reading the OD600, harvest cells by pelleting in a centrifuge at 4,000g, 4° C., for 30 minute. Determine the total OD of each of the six flasks, by multiplying the volume by OD/mL of each flask and divide by 15 OD to give the appropriate pellet resuspension volume. Discard supernatants and resuspend all pellets in the pre-chilled LB cryopreservant containing 30% glycerol and 0.4% sucrose, with a final volume as calculated above. Pool all resuspended pellets and mix gently, then aliquot into 1 mL/cryotube, and freeze at −70° C.
2. Preparing 10% hRBC Working Solution From Stock
Gently mix human red blood cells (hRBC) bottle (Rockland) by rocking ˜20×times, pipet out 10 mL of the hRBCs into a 15 ml conical tube. Centrifuge at 2,000 rpm(˜990×g) for 10 minutes and 4° C. Aspirate and discard the supernatant, then resuspend the pellet with 9 mL 4° C. PBS. The packed hRBCs in 15 mL conical tube should constitute roughly 1 mL of this total volume. Store these 10% hRBCs at 4° C. until use. […]
iv. PapG Hemagglutination Inhibition (HAI) Assay
The PapG hemagglutination inhibition (HAI) assay uses human red blood cells (hRBCs), which naturally express the PapG ligand GbO4 (globotetraosyl ceramide) on the cell surface, and the E. coli strain CFT073 expressing the fimbrial adhesin PapG. Upon mixing bacteria with hRBCs, […] cells remain suspended (presenting as a cloudy well), while no binding results in the red blood cells falling out of solution towards the center of the well (observed as pellet).
The total final well volume is 100 μL, with serum dilutions comprising 25 μL of this volume, strain CFT073 cells in […] volume, and hRBCs in a 50 μL volume. The assay plate is a V-bottom plate to which 25 μL 4° C. PBS is initially added to all wells. The positive control wells receive an additional 25 μL 4° C. PBS. The no-serum negative control consists of E. coli CFT073 cells plus hRBCs only (resulting agglutinated well appears cloudy). To accommodate pre-diluted sera transferred from the serum Master Dilution plate (MDP) an extra 5 μL 4° C. PBS is added to wells in Row A of the assay plate (columns 1 to 12). […]

B1: BMD562_PapG-DSF K172A_DAF-GPI: monovalent PapG modRNA LNP; RNA construct SEQ ID NO: 63 (nucleic acid)
chain: AGGAAAUAAGAGAAAGAGGAUAAGACGACUAAGGAGACAUACAGAAUAAGAGGCAGCCACCAUGGAGACCGACACCCUCCUGCUGUGGGUGCUGUUACUGUGGGUGCCCGGUAGCACCGGCUGGAACAACAUCGUGUUCUACAGCCUGGGCAACGUGAACAGCUACCAAGGCGGCAACGUGGUGAUCACACAGAGACCUCAGUUCAUCACAAGCUGGAGACCCGGCAUCGCCACCGUGACCUGGAAUCAGUGCAACGGCCCCGAGUUCGCCGACGGCAGCUGGGCCUACUACAGAGAGUACAUCGCCUGGGUGGUGUUCCCCAAGAAGGUGAUGACCAAGAACGGCUACCCCCUGUUCAUCGAGGUGCACAACAAGGGCAGCUGGAGCGAGGAGAACACCGGCGACAGCGACAGCUACUUCUUCCUGAAGGGCUACAAGUGGGACGAGAGAGCCUUCGACGCCGGCAACCUGUGUCAGAAGCCGGGGGAGACGACCCGGCUUACAGAAAAGUUCAACGACAUCAUCUUCAAGGUGGCCCUGCCCGCCGACCUGCCCCUGGGCGACUACAGCGUGACCAUCCCCUACACAAGCGGCAUUCAGAGACACUUCGCUAGCUACCUGGGCGCUAGAUUCGCCAUCCCCUACAACGUGGCCAAGACCCUGCCUAGAGAGAACGAGAUGCUGUUCCUGUUCAAGAACAUCGGCGGCUGCAGACCUAGCGCUCAGAGCCUGGAGAUCAAGCACGGCGACCUGAGCAUCAACAGCGCCAACAACCACUACGCCGCUCAGACCCUGAGCGUGAGCUGCGACGUGCCCGCCAACAUCAGAUUCAUGCUGCUGAGAUCAACCACCCCCACCUACAGCCACGGCAAGAAGUUCAGCGUGGGCCUGGGCCACGGCUGGGACAGCAUCGUGAGCGUGAACGGCGUGGACACGGGCGAGACCACUAUGCGUUGGUACAAGGCCGGCACACAGAGCCUGACCAUCGGCAGCAGACUGUACGGCGAGAGCAGCAAGAUUCAACCGGGCGUGCUUAGUGGUUCCGCCACCCUGCUGAUGAUUCUGCCCGGCGGAAGCAGCGGCGGCGCCGACGUGCAGAUCAACAUCAGAGGCAACGUGUACAUACCCCCUUCGAGCGGAGGCGGCGGAUCGUCCGGCUCCGGGAGCAGCAGCGGCACCACACGGCUGCUGAGCGGCCACACCUGCUUCACCCUGACCGGCCUGCUGGGCACCCUGGUGACCAUGGGCCUGCUGACCUGAUGAGCUCGCUUUCUUGCUGUCCAAUUUCUAUUAAAGGUUCCUUUGUUCCCUAAGUCCAACUACUAAACUGGGGGAUAUUAUGAAGGGCCUUGAGCAUCUGGAUUCUGCCUAAUAAAAAACAUUUAUUUUCAUUGCAAAAAAAAAAAAAAAAAAAAAAAAAAAAAAAAAAAAAAAAAAAAAAAAAAAAAAAAAAAAAAAAAAAAAAAAAAAAAAAAAA
modifications: modRNA in LNP
Take B1: under “1 μg”, the “Step Titer GMT (HAI)” value was 65,875 and the “Step Titer Pool (HAI)” value is listed as 81,000.

B2: BMD576_PapG-DSF K172A_DAF-GPI: monovalent PapG modRNA LNP; RNA construct SEQ ID NO: 64 (nucleic acid)
chain: AGGAGGACUGGUCGAACCUGCAUAGUGAUCAUAAGGUCAGCAUAGCCACCAUGGAGACCGACACCCUCCUGCUGUGGGUGCUGUUACUGUGGGUGCCCGGUAGCACCGGCUGGAACAACAUCGUGUUCUACAGCCUGGGCAACGUGAACAGCUACCAAGGCGGCAACGUGGUGAUCACACAGAGACCUCAGUUCAUCACAAGCUGGAGACCCGGCAUCGCCACCGUGACCUGGAAUCAGUGCAACGGCCCCGAGUUCGCCGACGGCAGCUGGGCCUACUACAGAGAGUACAUCGCCUGGGUGGUGUUCCCCAAGAAGGUGAUGACCAAGAACGGCUACCCCCUGUUCAUCGAGGUGCACAACAAGGGCAGCUGGAGCGAGGAGAACACCGGCGACAGCGACAGCUACUUCUUCCUGAAGGGCUACAAGUGGGACGAGAGAGCCUUCGACGCCGGCAACCUGUGUCAGAAGCCGGGGGAGACGACCCGGCUUACAGAAAAGUUCAACGACAUCAUCUUCAAGGUGGCCCUGCCCGCCGACCUGCCCCUGGGCGACUACAGCGUGACCAUCCCCUACACAAGCGGCAUUCAGAGACACUUCGCUAGCUACCUGGGCGCUAGAUUCGCCAUCCCCUACAACGUGGCCAAGACCCUGCCUAGAGAGAACGAGAUGCUGUUCCUGUUCAAGAACAUCGGCGGCUGCAGACCUAGCGCUCAGAGCCUGGAGAUCAAGCACGGCGACCUGAGCAUCAACAGCGCCAACAACCACUACGCCGCUCAGACCCUGAGCGUGAGCUGCGACGUGCCCGCCAACAUCAGAUUCAUGCUGCUGAGAUCAACCACCCCCACCUACAGCCACGGCAAGAAGUUCAGCGUGGGCCUGGGCCACGGCUGGGACAGCAUCGUGAGCGUGAACGGCGUGGACACGGGCGAGACCACUAUGCGUUGGUACAAGGCCGGCACACAGAGCCUGACCAUCGGCAGCAGACUGUACGGCGAGAGCAGCAAGAUUCAACCGGGCGUGCUUAGUGGUUCCGCCACCCUGCUGAUGAUUCUGCCCGGCGGAAGCAGCGGCGGCGCCGACGUGCAGAUCAACAUCAGAGGCAACGUGUACAUACCCCCUUCGAGCGGAGGCGGCGGAUCGUCCGGCUCCGGGAGCAGCAGCGGCACCACACGGCUGCUGAGCGGCCACACCUGCUUCACCCUGACCGGCCUGCUGGGCACCCUGGUGACCAUGGGCCUGCUGACCUGAUGAGCUCGCUUUCUUGCUGUCCAAUUUCUAUUAAAGGUUCCUUUGUUCCCUAAGUCCAACUACUAAACUGGGGGAUAUUAUGAAGGGCCUUGAGCAUCUGGAUUCUGCCUAAUAAAAAACAUUUAUUUUCAUUGCAAAAAAAAAAAAAAAAAAAAAAAAAAAAAAAAAAAAAAAAAAAAAAAAAAAAAAAAAAAAAAAAAAAAAAAAAAAAAAAAAA
modifications: modRNA in LNP
On to B2, for which the “Step Titer GMT (HAI)” value runs as follows: (0.2 μg) 50,054; (1 μg) 69,595; (5 μg) 141,214. The “Step Titer Pool (HAI)” value runs as follows: (0.2 μg) 54,000; (1 μg) 27,000; (5 μg) 81,000.
